These results are taken from US20260158070A1, “COMPOSITIONS AND METHODS FOR THE TREATMENT AND DIAGNOSIS OF CANCERS ASSOCIATED WITH SURFACE K-RAS” (UNIVERSITY OF MARYLAND, BALTIMORE, priority 2023, published 2026).

The test system of assay [1] is Panc-1 (K-Ras G12D mutant). The assay is described as follows: Growth and viability of pancreatic cancer cells cultured with R11.1.6 constructs (cell count, Trypan blue). It counts as cell-based, human. To be noted: Panc-1, 20,000 cells/well, counted after 5 days of culture. Here is the method: We next evaluated growth as well as viability of two pancreatic cancer cell lines driven by either G12D (Panc-1) or G12C (MiaPaca-2) mutant K-Ras in vitro. We plated 20,000 cells/well in Dulbecco's modified Eagles media (DMEM) with 10% fetal bovine serum (FBS) in a flat bottom 96 well plate and counted cells after 5 days of culture. Viability of cells were calculated based on Trypan blue dye exclusion method, where dead cells were blue due to uptake of the viability dye and live cells were not stained. Viability was measured by using Countess II FL cell viability and cell counter instrument by Invitrogen (ThermoFisher USA).
Further evaluation of growth inhibition was performed with control Sulfolobus solfataricus-derived proteins of similar molecular weight. […] We started with 200,000 cells in a 96 well V-bottom plate and used BD phosflow buffer set III (BD biosciences, catalog number 558050) to stabilize and optimize the phosphor moiety. Next, we stained the cells with anti-phospho-Akt (ser473, Clone D9E) PE conjugated (Cell Signaling Technologies, Catalog number 5315S) at a concentration of 0.125 ug/100 ul or anti-phosho-ERK1/2, PE conjugated (ThermoFisher USA catalog number 12-9109-42) at a concentration of 0.125 ug/100 ul. Cells were washed in FACS staining buffer and run in a LSR Fortessa II flow cytometer (BD Biosciences, USA). Acquisition was done was using FACS DIVA software (BD Biosciences) and analysis was performed in FlowJo software (Tree Star, OR, USA). This was a significant finding as both Akt and ERK1/2 are important downstream molecules of K-Ras signaling, like that described for small molecule inhibitors of K-Ras (PMID: 12509763) (FIG. 1g).

Assay [2] has as its system Panc-1 (G12D mutant K-Ras). The experiment in a line: Localization / surface binding of His-tagged constructs by anti-His flow cytometry and confocal microscopy. The format is cell-based, human. From the text: However, we considered that the small 7 kDa size of this scaffolding protein and disorganized cell membrane of malignantly transformed cells may allow for cytoplasmic penetration even in the absence of a cell penetrating peptide. To evaluate this possibility, we explored the cellular location of the R11.1.6 constructs by flow cytometry and confocal microscopy. For flow cytometry experiments, cells were stained first with Live/Dead far red fixable staining kit (ThermoFisher USA, catalog number L10120). Specifically, 0.2-0.4×10^6 cells were plated in a V bottom plate and 100 ul of the dye (1:1000 dilution of stock concentration following manufacturer's protocol) was added to each well and cells incubated in room temperature for 15 mins. Next cells were washed with PBS containing 2.5% FBS and 0.1% sodium azide (FACS buffer). Cells were then surface stained by adding 100 ul/well of anti-His PE labelled antibody (mouse anti-human antibody, BioLegend, CA, USA Catalog #362603) at a concentration of 10 μg/ml. Cells were washed twice with FACS buffer and fixed by cytofix buffer (BD biosciences catalog number 554655). […] Cells were acquired using LSR Fortessa II flow cytometer using FACS DIVA software (BD Biosciences USA) and analyzed using FlowJo (Tree Star USA). […]
Background: Flow cytometry measures light scatter and fluorescence of single cells or particles in a stream.

B1: E11.4.1: scaffold protein which binds human EGFR (SEQ ID NO: 8) (protein)
chain: ATVKFTYQGEEKQVDISKIMYVIRGGQRIAFGYDEGDGAWGDGIVSEKDAPKELLQMLEKQ
For B1, in assay [1], the growth and viability result is given as “none of these control constructs could inhibit tumor growth”. In addition, in assay [2], the “binding to the tumor cell surface (anti-His staining)” value was “bind to the surface of tumor cells”.

B2: M11.1.2: a scaffolding protein that binds mouse serum albumin (SEQ ID NO: 7) (protein)
chain: ATVKYTYRGEEKRVDISKIKWVNRWGQHLAFKYDKGGGAAGYGWVSEKDAPKELLQMLEKR
As for B2, in assay [1], the growth and viability result was “none of these control constructs could inhibit tumor growth”.

B3: mutated form of R11.1.6: R11.1.6 with codons in the regions that contact the K-RAS mutant scrambled to prevent binding (SEQ ID NO: 6) (protein)
chain: ATVKFTHQGEEKQVDISKIKFVWRKGYVRIWGYDEDGGWGAGKYVSEKDAPKELLQMLKKR
For B3, in assay [1], the growth and viability result is given as “none of these control constructs could inhibit tumor growth”.
